Laboratory results from PMC11401910, “Dual client binding sites in the ATP-independent chaperone SurA” (Nature Communications, 2024).

B1: SurA-core: SurA construct lacking both PPIase domains (residues 172-389 deleted) (protein)
chain: APQVVDKVAAVVNNGVVLESDVDGLMQSVKLNAAQARQQLPDDATLRHQIMERLIMDQIILQMGQKMGVKISDEQLDQAIANIAKQNNMTLDQMRSRLAYDGLNYNTYRNQIRKEMIISEVRNNEVRRRITILPQEVESLAQQVGNQNDASDAAQKDRAYRMLMNRKFSEEAASWMQEQRASAYVKILSN
modifications: left off: His6, N-terminal, state not stated
B2: OmpX: unfolded E. coli outer membrane protein OmpX, mature sequence residues 24-171 (protein)
chain: ATSTVTGGYAQSDAQGQMNKMGGFNLKYRYEEDNSPLGVIGSFTYTEKSRTASSGDYNKNQYYGITAGPAYRINDWASIYGVVGVGYGKFQTTEYPTYKHDTSDYGFSYGAGLQFNPMENVALDFSYEQSRIRSVDVGTWIAGVGYRF

Legend:
[1] = test system: OmpX; settings: ~75 pM double-labelled OmpX, 30 μM SurA variant, 20 mM Tris-HCl, 0.1 M urea, 0.02% Tween-20, pH 8.0, ~21 °C; apo-OmpX ~0.85
Method: Samples were measured at a volume of 100 μL in an 18 well sample chamber (81817, Ibidi) with the focal spot 50 μm above the cover glass on a custom-built confocal microscope (Supplementary Methods) at room temperature (~21 °C). […] Aged Trolox was prepared by adding 1 mM of Trolox to measurement buffer and incubating the sample overnight at room temperature on a rotary shaker to dissolve before being filtered using a 0.22 μm pore size membrane. Tween-20 (0.02% v/v) was added to prevent non-specific absorption to the glass slide.
The ptu files from the SymPhoTime64 software were converted into HDF5 data files using phconvert v0.9 (available at https://github.com/Photon-HDF5/phconvert). Each of these files was then merged to create one file for each condition. […] Firstly, the background was independently calculated for every 60 s period of measurement. […]
BVA[68] was used to assay for dynamics on the ms timescale occurring during bursts. This analysis compares the expected variance in Eraw based on shot noise against the measured variance in Eraw in each individual burst (si). […] To calculate si, we segmented each burst into consecutive windows of 5 photons, and calculated the standard deviation of all windows within the burst. […]

[2] = target: T1, SurA-WT (Escherichia coli, UniProt P0ABZ6); type: binding; settings: pH 8
T1 construct: made in house; host or cells: E. coli BL21(DE3)
T1 sequence (P0ABZ6 other isoform, or with tags, fused parts or gaps): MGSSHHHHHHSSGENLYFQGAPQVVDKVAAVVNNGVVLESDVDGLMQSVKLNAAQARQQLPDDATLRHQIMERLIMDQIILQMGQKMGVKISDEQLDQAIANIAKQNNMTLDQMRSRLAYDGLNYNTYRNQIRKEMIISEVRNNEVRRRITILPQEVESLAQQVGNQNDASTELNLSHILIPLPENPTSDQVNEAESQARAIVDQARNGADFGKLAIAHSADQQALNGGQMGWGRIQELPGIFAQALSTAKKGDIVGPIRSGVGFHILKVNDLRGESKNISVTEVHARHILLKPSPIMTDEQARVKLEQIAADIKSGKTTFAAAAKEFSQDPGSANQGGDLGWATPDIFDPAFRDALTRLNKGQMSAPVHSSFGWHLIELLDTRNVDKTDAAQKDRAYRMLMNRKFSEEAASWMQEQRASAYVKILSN
Method: All NMR experiments were performed on a 950-MHz Bruker Ascend Avance III HD NMR spectrometer equipped with either a Bruker 3 mm TCI or 5 mm TXO triple-resonance cryogenically cooled probe. Peptide binding experiments were performed in 5 mM EDTA, 20 mM Tris-HCl, pH 8.0 with 5 % (v/v) D2O at 25 °C. Binding experiments using full-length OMP sequences also contained 0.8 M urea. Data was acquired for ~16 h with the exception of OMP-containing experiments which were acquired for ~5 h. […] (2D ^1H-^13C SOFAST-HMQC)[70]. […] Errors in the intensity ratios for each peak between two spectra were obtained by propagating the errors according to:1 δR=R*δX/X+δY/Y where δR is the error in the intensity ratio, |R| is the value of the intensity ratio, X and Y are the intensity values for the peak in the first and second spectrum, respectively, and δX and δY are the noise floor values for the first and second spectrum, respectively.
Z-scores for intensity ratio and CSP data were calculated using:3 Zi=xi−μ/σ where xi is the value for a particular peak, and µ and σ are the mean and standard deviation for all peaks, respectively.
For assignment of SurA-WT Ile and Met residues (43 in total) each residue was individually mutated (Supplementary Table 3), and the effect of the mutation assessed by methyl-TROSY NMR. Samples contained 5–70 µM SurA variant. […]

[3] = target: SurA; settings: read-out: Kd, binding of full-length unfolded OmpX to SurA; cited from earlier work
From the text: (where Ar is an aromatic residue and X is any amino acid), or aromatic-enriched sequences containing an Ar-X-Ar-X-Pro motif. […] Both of these types of peak changes (shifts and/or broadening), can report on binding or conformational changes caused by binding at the location of the corresponding ^13CH3 probe[73],[74].

Row | Molecule | Maximum of the raw FRET distribution (Eraw) of OmpX bound to SurA variant [1] | Interaction of unfolded OMP with SurA-WT domains by methyl-TROSY NMR, in words [2] | Kd [3] [nM]
1 | B1 | ~ 0.45 | – | –
2 | B2 | – | regions in the core and P1 domains directly interact with OmpX, while P2 is largely uninvolved in OmpX binding | ~1000
